Measured values from patent US20230036655A1 (OTSUKA PHARMACEUTICAL, published 2023).
One block for each molecule: values may come before it.

Legend:
[1] = biological target: T1, human GDF15 (hGDF15), mature, wild-type (human, UniProt Q99988 197-308); test: competition ELISA: GFRAL immobilised, biotinylated GDF15 plus serially diluted antibody; inhibition of GDF15-GFRAL complex formation (negative control)
T1 construct: Bought recombinant protein: R&D Systems 957-GD-025/CF in most assays, 9279-GD in the crystal and the GDF15/GFRAL/RET assay; It was biotinylated in the GFRAL assay; also called hGDF15 (WT); rhGDF15
T1 sequence: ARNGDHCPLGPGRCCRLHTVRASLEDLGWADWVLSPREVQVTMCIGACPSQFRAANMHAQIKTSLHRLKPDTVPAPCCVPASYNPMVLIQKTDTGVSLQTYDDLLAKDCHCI

[2] = biological target: T1, human GDF15 (hGDF15), mature, wild-type; test: sandwich ELISA: antibody immobilised, WT or mutant hGDF15, goat polyclonal detection; N=3, mean ± SD (reference)
mutant hGDF15 R13A = biological target: T2, mutant hGDF15 R13A (human, UniProt Q99988 197-308); test: sandwich ELISA: antibody immobilised, WT or mutant hGDF15, goat polyclonal detection; N=3, mean ± SD
T2 construct: Expressed in ExpiCHO-S cells and used as culture supernatant in the ELISA
T2 chain: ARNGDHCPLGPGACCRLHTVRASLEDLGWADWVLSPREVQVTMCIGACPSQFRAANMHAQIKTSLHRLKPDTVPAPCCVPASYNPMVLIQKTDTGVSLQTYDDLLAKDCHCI

mutant hGDF15 4A = biological target: T3, mutant hGDF15 4A (human, UniProt Q99988 197-308); test: as above
T3 construct: Expressed in ExpiCHO-S cells and used as culture supernatant
T3 chain: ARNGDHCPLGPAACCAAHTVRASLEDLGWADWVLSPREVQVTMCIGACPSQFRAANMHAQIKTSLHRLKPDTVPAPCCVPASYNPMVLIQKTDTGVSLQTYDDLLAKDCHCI

mutant hGDF15 8A = biological target: T4, mutant hGDF15 8A (human, UniProt Q99988 197-308); test: as above
T4 construct: Expressed in ExpiCHO-S cells and used as culture supernatant
T4 chain: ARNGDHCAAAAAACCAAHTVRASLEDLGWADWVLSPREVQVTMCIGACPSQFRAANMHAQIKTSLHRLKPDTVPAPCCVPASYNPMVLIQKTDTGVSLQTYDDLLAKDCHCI

mutant hGDF15 R16A = biological target: T5, mutant hGDF15 R16A (human, UniProt Q99988 197-308); test: as above
T5 construct: Expressed in ExpiCHO-S cells and used as culture supernatant in the ELISA
T5 chain: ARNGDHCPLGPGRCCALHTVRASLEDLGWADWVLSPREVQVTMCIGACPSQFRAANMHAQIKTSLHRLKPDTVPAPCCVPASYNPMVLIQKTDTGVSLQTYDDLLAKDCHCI

mutant hGDF15 6A = biological target: T6, mutant hGDF15 6A (human, UniProt Q99988 197-308); test: as above
T6 construct: Expressed in ExpiCHO-S cells and used as culture supernatant
T6 chain: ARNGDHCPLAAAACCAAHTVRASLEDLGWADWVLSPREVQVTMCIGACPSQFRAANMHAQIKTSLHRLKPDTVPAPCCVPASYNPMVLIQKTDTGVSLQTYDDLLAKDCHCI

mutant hGDF15 R13A, R16A = biological target: T7, mutant hGDF15 R13A, R16A (human, UniProt Q99988 197-308); test: as above
T7 construct: Expressed in ExpiCHO-S cells and used as culture supernatant in the ELISA
T7 chain: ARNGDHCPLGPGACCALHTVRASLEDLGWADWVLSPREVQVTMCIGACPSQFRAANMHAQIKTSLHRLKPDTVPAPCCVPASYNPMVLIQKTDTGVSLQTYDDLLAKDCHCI

mutant hGDF15 3A = biological target: T8, mutant hGDF15 3A (human, UniProt Q99988 197-308); test: as above
T8 construct: Expressed in ExpiCHO-S cells and used as culture supernatant
T8 chain: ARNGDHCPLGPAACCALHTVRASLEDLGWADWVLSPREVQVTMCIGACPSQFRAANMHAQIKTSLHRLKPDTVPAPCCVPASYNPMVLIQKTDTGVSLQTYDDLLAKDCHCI

mutant hGDF15 T72A = biological target: T9, mutant hGDF15 T72A (human, UniProt Q99988 197-308); test: as above
T9 construct: Expressed in ExpiCHO-S cells and used as culture supernatant in the ELISA
T9 chain: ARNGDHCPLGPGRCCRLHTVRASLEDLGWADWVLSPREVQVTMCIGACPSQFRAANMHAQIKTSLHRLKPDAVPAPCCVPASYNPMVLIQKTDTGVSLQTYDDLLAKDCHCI

mutant hGDF15 H6A = biological target: T10, mutant hGDF15 H6A (human, UniProt Q99988 197-308); test: as above
T10 construct: Expressed in ExpiCHO-S cells and used as culture supernatant in the ELISA
T10 chain: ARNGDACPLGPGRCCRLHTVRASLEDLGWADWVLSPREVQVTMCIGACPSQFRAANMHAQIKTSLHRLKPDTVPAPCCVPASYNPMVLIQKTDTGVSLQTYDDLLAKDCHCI

[3] = biological target: T1, human GDF15 (hGDF15), mature, wild-type; test: competition ELISA: GFRAL immobilised, biotinylated GDF15 plus serially diluted antibody; inhibition of GDF15-GFRAL complex formation
From the text: First, the effect on GDF15 and GFRAL complex formation was examined (FIG. 12). GFRAL (R&D systems, 9697-GR) was immobilized on a plate, and GDF15 (R&D systems, 957-GD/CF) biotinylated with EZ-Link Micro NHS-PEG4-Bitinylation Kit (Thermo Fisher Scientific, 21955) and a serially diluted solution of an anti-GDF15 monoclonal antibody (Table 26) were reacted with the plate. Human IgG1, kappa-Isotype Control (Abcam) was used as a negative control antibody. GDF15 bound to GFRAL was detected using Pierce High Sensitivity Streptavidin-HRP (Thermo Fisher Scientific, 21130). TMB 1-Component Microwell Peroxidase Substrate, SureBlue (SeraCare Life Sciences) was used for color development, and the reaction was stopped by adding a stop solution (Wako). Absorbance was measured at 450 nm (OD450) using Emax (Molecular Devices). The % of control value was calculated according to Equation-1 from the OD450 value when each antibody was added, with the OD450 value when no antibody was added as a control. The IC50 value was obtained by calculating the inhibition rate from the % of control value thus obtained according to Equation-2 and using an Excel macro for IC50 calculation.

[4] = biological target: T1, human GDF15 (hGDF15), mature, wild-type; test: competition (sandwich) ELISA: clone immobilised, hGDF15 captured; competitor: biotinylated HuMAB2
Experimental: HuMAB2 and the anti-GDF15 monoclonal antibodies shown in Table 5 (2 μg/mL) were added to 96-well plates at 100 μL/well to be immobilized on the plates, and reacted with 100 μL/well of hGDF15 (R&D Systems, 957-GD-025/CF) serially diluted from a concentration of 1 ng/ml. HuMAB2 biotinylated using EZ-Link Micro NHS-PEG4-Bitinylation Kit (Thermo Fisher Scientific, 21955) was used as the detection antibody (1 μg/mL as 100 μL/well). Whether or not sandwich ELISA was established was determined using Streptavidin-HRP conjugate in Human GDF15 ELISA Kit (R&D Systems, DY957). The detection antibody in Human GDF15 ELISA Kit (R&D Systems, DY957) (Table 5), which can establish sandwich ELISA with any monoclonal antibody, was used as a positive control antibody (PC) for sandwich ELISA.
Then, other antibodies obtained this time were tested to see whether each of these antibodies competes with HuMAB2 by the same method as described above.

Molecule: Human IgG1 Isotype control (antibody)
IC50 [1]: > 500 nM

B2: MAB17 (antibody, V domains shown)
VH: QVTLKESGPGILQPSQTLSLTCSFSGFSLNTHGMGVGWIRQPSGKGLEWLANIWWNDDKYYNSALKSRLTLSKDTSNNQVFLKISSVDTADTATYFCAQVAWDWFAYWGQGTLVTIS
VL: QIVLTQSPAIMSASLGEEITLTCSASSSVRYMHWYQQKSGTSPKVLIYSTSNLASGVPSRFSGSGSGTFYSLTISSVEAEDAADYYCHQWSSYPWTFGGGTKLEIKR
notes: Mouse monoclonal antibody from hybridoma; also called clone MAB17
Inhibition % [4]: 0%
relative binding (amount bound to 500 pg/mL hGDF15 = 100) (mutant hGDF15 R13A): 97.2 relative value (WT hGDF15 = 100)
relative binding (amount bound to 500 pg/mL hGDF15 = 100) (mutant hGDF15 4A): 95 relative value (WT hGDF15 = 100)
relative binding (amount bound to 500 pg/mL hGDF15 = 100) (mutant hGDF15 8A): 78.8 relative value (WT hGDF15 = 100)
relative binding (amount bound to 500 pg/mL hGDF15 = 100) (mutant hGDF15 R16A): 101 relative value (WT hGDF15 = 100)
relative binding (amount bound to 500 pg/mL hGDF15 = 100) (mutant hGDF15 6A): 83.9 relative value (WT hGDF15 = 100)
relative binding (amount bound to 500 pg/mL hGDF15 = 100) (mutant hGDF15 R13A, R16A): 83 relative value (WT hGDF15 = 100)
relative binding (amount bound to 500 pg/mL hGDF15 = 100) (mutant hGDF15 3A): 110 relative value (WT hGDF15 = 100)
relative binding (amount bound to 500 pg/mL hGDF15 = 100) (mutant hGDF15 T72A): 104 relative value (WT hGDF15 = 100)
relative binding (amount bound to 500 pg/mL hGDF15 = 100) (mutant hGDF15 H6A): 87.7 relative value (WT hGDF15 = 100)
IC50 [3]: 12 nM

B3: Hu01G06-127 (antibody, V domains shown)
VH: QVQLVQSGAEVKKPGASVKVSCKASGYTFTDYNMDWVRQAPGQSLEWMGQINPNNGLIFFNQKFQGRVTLTTDTSTSTAYMELRSLRSDDTAVYYCAREAITTVGAMDYWGQGTLVTVSS
VL: DIQMTQSPSSLSASVGDRVTITCRTSENLHNYLAWYQQKPGKSPKLLIYDAKTLADGVPSRFSGSGSGTDYTLTISSLQPEDFATYYCQHFWSDPYTFGQGTKLEIKR
relative binding (amount bound to 500 pg/mL hGDF15 = 100) (mutant hGDF15 R13A): 91.4 relative value (WT hGDF15 = 100)
relative binding (amount bound to 500 pg/mL hGDF15 = 100) (mutant hGDF15 4A): 83.5 relative value (WT hGDF15 = 100)
relative binding (amount bound to 500 pg/mL hGDF15 = 100) (mutant hGDF15 8A): 57.1 relative value (WT hGDF15 = 100)
relative binding (amount bound to 500 pg/mL hGDF15 = 100) (mutant hGDF15 R16A): 102 relative value (WT hGDF15 = 100)
relative binding (amount bound to 500 pg/mL hGDF15 = 100) (mutant hGDF15 6A): 61.6 relative value (WT hGDF15 = 100)
relative binding (amount bound to 500 pg/mL hGDF15 = 100) (mutant hGDF15 R13A, R16A): 87.6 relative value (WT hGDF15 = 100)
relative binding (amount bound to 500 pg/mL hGDF15 = 100) (mutant hGDF15 3A): 96.2 relative value (WT hGDF15 = 100)
relative binding (amount bound to 500 pg/mL hGDF15 = 100) (mutant hGDF15 T72A): 108 relative value (WT hGDF15 = 100)
relative binding (amount bound to 500 pg/mL hGDF15 = 100) (mutant hGDF15 H6A): 90.5 relative value (WT hGDF15 = 100)
IC50 [3]: 0.05 nM

More lines, now with the values ahead:

relative binding (amount bound to 500 pg/mL hGDF15 = 100) (relative value (WT hGDF15 = 100)) [2]: 100
relative binding (amount bound to 500 pg/mL hGDF15 = 100) (relative value (WT hGDF15 = 100)) (mutant hGDF15 R13A): 89.9
relative binding (amount bound to 500 pg/mL hGDF15 = 100) (relative value (WT hGDF15 = 100)) (mutant hGDF15 4A): 84.1
relative binding (amount bound to 500 pg/mL hGDF15 = 100) (relative value (WT hGDF15 = 100)) (mutant hGDF15 8A): 69.2
relative binding (amount bound to 500 pg/mL hGDF15 = 100) (relative value (WT hGDF15 = 100)) (mutant hGDF15 R16A): 93.9
relative binding (amount bound to 500 pg/mL hGDF15 = 100) (relative value (WT hGDF15 = 100)) (mutant hGDF15 6A): 74.3
relative binding (amount bound to 500 pg/mL hGDF15 = 100) (relative value (WT hGDF15 = 100)) (mutant hGDF15 R13A, R16A): 80.6
relative binding (amount bound to 500 pg/mL hGDF15 = 100) (relative value (WT hGDF15 = 100)) (mutant hGDF15 3A): 99
relative binding (amount bound to 500 pg/mL hGDF15 = 100) (relative value (WT hGDF15 = 100)) (mutant hGDF15 T72A): 101
relative binding (amount bound to 500 pg/mL hGDF15 = 100) (relative value (WT hGDF15 = 100)) (mutant hGDF15 H6A): 88.3
IC50 [3]: 11.1 nM
Molecule: MAB957 (antibody)

Inhibition % [4]: 82%
B1: MAB1 (antibody, V domains shown)
VH: EVQLQQSGPELEKPGASVKISCKASGYSFTGYNMNWVKQSNGKSLEWIGNIDPYYGGTSYNQKFKGKATLTVDKSSSTAYMQLKSLTSEDSAVYYCARPGRYDGAWFAYWGQGTLVTVSA
VL: QIVLSQSPAILSASPGEKVTMTCRASSNVNYMHWYQQKPGSSPKPWIYATSNLASGVPARFSGSGSGTSYSLTISRVEAEDAATYYCQQWSDNPLTFGAGTKLELK
notes: Mouse monoclonal antibody from hybridoma; also called clone MAB1

Inhibition % [4]: 79%
B4: MAB13 (antibody, V domains shown)
VH: EIQLQQTGPELVKPGASVKISCKASGYSFTDYIMLWVKQRHGKSLEWIGNIHPYYGTTSYNLKFKGKATLTVDKSSSTAYMQLNSLTSEDSAVYYCARGIGGSPFAYWGQGTLVTVSA
VL: DVLMTQTPLSLPVSLGDQASISCRSSQSIVHSNGNTYLEWYLQKPGQSPKLLIYKVSNRFSGVPDRFTGTGSGTDFTLKISRVEAEDLGVYYCFQGSHVPYTFGGGTKLEIK
notes: Mouse monoclonal antibody from hybridoma; also called clone MAB13
